The results in this text go back to paper doi:10.1101/2025.08.19.670962 (2025).

The chains are these.
B1: JIP3-GFP [not stated] / TMEM55B (in HEK293 wild type cells, Figure 4) [not stated] (parent complex)
chain 1: MMEIQMDEGGGVVVYQDDYCSGSVMSERVSGLAGSIYREFERLIHCYDEEVVKELMPLVVNVLENLDSVLSENQEHEVELELLREDNEQLLTQYEREKALRRQAEEKFIEFEDALEQEKKELQIQVEHYEFQTRQLELKAKNYADQISRLEERESEMKKEYNALHQRHTEMIQTYVEHIERSKMQQVGGNSQTESSLPGRRKERPTSLNVFPLADGTVRAQIGGKLVPAGDHWHLSDLGQLQSSSSYQCPQDEMSESGQSSAAATPSTTGTKSNTPTSSVPSAAVTPLNESLQPLGDYGVGSKNSKRAREKRDSRNMEVQVTQEMRNVSIGMGSSDEWSDVQDIIDSTPELDMCPETRLDRTGSSPTQGIVNKAFGINTDSLYHELSTAGSEVIGDVDEGADLLGEFSVRDDFFGMGKEVGNLLLENSQLLETKNALNVVKNDLIAKVDQLSGEQEVLRGELEAAKQAKVKLENRIKELEEELKRVKSEAIIARREPKEEAEDVSSYLCTESDKIPMAQRRRFTRVEMARVLMERNQYKERLMELQEAVRWTEMIRASREHPSVQEKKKSTIWQFFSRLFSSSSSPPPAKRPYPSVNIHYKSPTTAGFSQRRNHAMCPISAGSRPLEFFPDDDCTSSARREQKREQYRQVREHVRNDDGRLQACGWSLPAKYKQLSPNGGQEDTRMKNVPVPVYCRPLVEKDPTMKLWCAAGVNLSGWRPNEDDAGNGVKPAPGRDPLTCDREGDGEPKSAHTSPEKKKAKELPEMDATSSRVWILTSTLTTSKVVIIDANQPGTVVDQFTVCNAHVLCISSIPAASDSDYPPGEMFLDSDVNPEDPGADGVLAGITLVGCATRCNVPRSNCSSRGDTPVLDKGQGEVATIANGKVNPSQSTEEATEATEVPDPGPSEPETATLRPGPLTEHVFTDPAPTPSSGPQPGSENGPEPDSSSTRPEPEPSGDPTGAGSSAAPTMWLGAQNGWLYVHSAVANWKKCLHSIKLKDSVLSLVHVKGRVLVALADGTLAIFHRGEDGQWDLSNYHLMDLGHPHHSIRCMAVVYDRVWCGYKNKVHVIQPKTMQIEKSFDAHPRRESQVRQLAWIGDGVWVSIRLDSTLRLYHAHTHQHLQDVDIEPYVSKMLGTGKLGFSFVRITALLVAGSRLWVGTGNGVVISIPLTETVVLHRGQLLGLRANKTSPTSGEGARPGGIIHVYGDDSSDRAASSFIPYCSMAQAQLCFHGHRDAVKFFVSVPGNVLATLNGSVLDSPAEGPGPAAPASEVEGQKLRNVLVLSGGEGYIDFRIGDGEDDETEEGAGDMSQVKPVLSKAERSHIIVWQVSYTPE
chain 2: not shown

In the assay the parent is B1. The assay can be described thus: co-immunoprecipitation (GFP IP, quantitative immunoblot); HEK293 wild type cells, lysed 24h post transfection; parent: 31; read off a plot.
As to chain 1 A895L, chain 1 E897K, the response was ~10 TMEM55B/GFP.
